According to patent publication US20240182549A1, “PEPTIDES AND ANTIBODY FUSIONS THAT BIND TO SARS-COV-2 AND METHODS OF USING SAME” (priority 2021, published 2024):
Ends that are not written are not given here.

Tests used:
S protein ECD [1] = target: T1, S protein ECD (Severe acute respiratory syndrome coronavirus 2, UniProt P0DTC2, K986P/R682S/R683S/R685S/V987P)
SARS-CoV-2 S protein = SARS-CoV-2 S protein (Severe acute respiratory syndrome coronavirus 2, UniProt P0DTC2, K986P/R682S/R683S/R685S/V987P)
S protein ECD [2] = target: T1, S protein ECD; remark: listed apart in the source

Substance | peptide-phage binding to ECD blocked by NTD-binding antibodies (S protein ECD [1]) | peptide-phage binding to ECD blocked by RBD-binding antibodies (S protein ECD [1]) | affinity improvement over 15033 (SARS-CoV-2 S protein) | binding to S protein ectodomain (in words) (S protein ECD [2])
p102 (ECWEWSYQLQEWSPCP; not fully specified; cysteine pairing not given here) | not by those that bound to the NTD | blocked | – | –
p16 (DFDFAENWMEQLKVML; not fully specified) | blocked | not by those that bound to the ACE2-binding site of the RBD | significant affinity improvement | did not exhibit detectable binding
